According to patent US20120321614A1 (Amgen, published 2012):

Experiments:
[1] = target: T1, c-Met expressed on the surface of human A549 lung carcinoma cells (human, UniProt P08581 25-1390); test: flow cytometry on human A549 cells, half-maximal binding at equilibrium
T1 construct: whole, on cells; Used for all assays on cells that carry human c-Met (A549, HepG2, S114); also called human c-Met; c-Met in A549 cells
Procedure: (§1) The binding affinity of purified antibodies for c-Met expressed on the surface of human A549 lung carcinoma cells and cynomolgus kidney cells was determined by flow cytometry using the BD™ Biosciences LSR flow cytometer according to manufacturer's protocols.
(§2) Cells grown in culture were washed with PBS, briefly incubated in the presence of 0.25% trypsin-EDTA (Invitrogen) and collected. The collected cells were washed in PBS wash buffer containing 0.025% sodium azide and 2% heat inactivated serum, pelleted and 5×10⁵ cells and resuspended in 500 μl of the same buffer. The time required to achieve equilibrium binding at room temperature for each antibody was determined independently to be between six and eight hours by incubating subsaturating concentrations of each antibody with cells. […] Each antibody was incubated with detached cells for 6 to 8 hours at room temperature depending on the time required to reach equilibrium. Cells were washed, resuspended and incubated in 500 μl of a 1:500 dilution of biotinylated mouse anti-human IgG (Jackson Labs) in PBS wash buffer for 45 minutes on ice. Next, cells were washed, resuspended and incubated with 10 μg/ml streptavidin R-phycoerythrin conjugate (Caltag) in 200 μl PBS wash buffer for 15 min on ice protected from light. Cells were washed and signal was detected with a BD Biosciences LSR flow cytometer according to manufacturer's protocols.

[2] = target: T2, c-Met expressed on the surface of cynomolgus kidney cells (cynomolgus, UniProt A0A2K5UM36 25-1381); test: flow cytometry on cynomolgus kidney cells, half-maximal binding at equilibrium
T2 construct: also called cynomologus c-Met expressed on the cell surface
Procedure: as §1, §2

[3] = target: T3, c-Met ECD/Fc (R&D Systems #358 MT), human (human, UniProt P08581 25-932); test: SPR (BIACORE 3000), human c-Met ECD-Fc immobilized, antibody injected, 1:1 model
T3 construct: extracellular domain; Bought fusion protein; also called c-Met ECD-Fc (human); human Met ECD-Fc; not shown: Fc part of the bought fusion protein

[4] = target: T3, c-Met ECD/Fc (R&D Systems #358 MT), …; test: ELISA, inhibition of HGF binding to plate-coated c-Met ECD/Fc
Procedure: The wells were washed four times with Tris-buffered saline (pH=8.0) with 0.05% TWEEN-20 (TBS-T). Next, 200 μl/well of blocking buffer (3% bovine serum albumin (BSA) in TBS-T) was added for 60 minutes (min) at room temperature to block non-specific binding sites. The wells were washed 4 times with 300 μl/well TBS-T. Next, 100 μl of Dulbecco's Modified Eagle medium (DMEM) supplemented with 10% FBS containing anti-c-Met antibodies from hybridoma supernatants or purified antibodies in either PBS or 20 mM sodium acetate (pH=5.5), 140 mM NaCl at various concentrations (e.g., 10, 3, 1, 0.3, 0.1, 0.03, and 0.01 μg/ml, based on human IgG2 concentrations in the supernatants) was added to each well. Anti-c-Met antibody was not added to the control wells of the experiment. The samples were mixed for 4 hours (hrs) at room temperature. […] The samples were mixed for 15 minutes at room temperature. […] The solutions were incubated in the wells for 30 min at room temperature. […] The samples were incubated for 30 min at room temperature. The wells were washed 5 times with TBS-T, about 300 μl/well/wash. Next, 100 μl/well of 3,3′,5,5′-tetramethylbenzidine (TMB) peroxidase substrate (Kirkegaard & Perry Laboratories) was added and developed for 1-2 min at room temperature. To stop the reaction, 100 μl/well of TMB stop solution (Kirkegaard & Perry Laboratories, #50-85-04) was added. The samples were read at a wavelength of 450 nanometers (nm) on a 96-well plate reader and no background was subtracted.

[5] = target: T1, c-Met expressed on the surface of human …; test: cell-based or functional assay
[6] = target: T4, c-Met ECD-Fc (cynomologus) (cynomologus, UniProt A0A2K5UM36 25-932); test: SPR (BIACORE 3000), cynomologus c-Met ECD-Fc immobilized, antibody injected, 1:1 model
T4 construct: also called cynomologus c-Met ECD-Fc
Procedure: (§3) Experiments were performed in a BIACORE™ 3000 instrument at 25° C. in Dulbecco's phosphate buffered saline containing 0.0005% Tween-20. Protein concentrations were obtained from sedimentation velocity experiments or by measuring the wavelength of the sample at 280 nm using theoretical extinction coefficients derived from amino acid sequences. For experiments measuring the binding of antibody to immobilized antigens, 220 RU (resonance units) of c-Met ECD-Fc (human or cynomologus) was immobilized on a B1 chip (BIACORE™) by standard direct amine coupling procedures. […] For each concentration, samples were injected in duplicate at 5 μl/min flow for 4 min. The dissociation was monitored for 2000 seconds. The data were fit globally to a simple 1:1 binding model using BIACORE™ Biavel software. In addition, to determine the koff independent of any potential error in the active concentration or fitting model, the dissociation data were fit globally and independently from association data to a simple dissociation model.

[7] = target: T3, c-Met ECD/Fc (R&D Systems #358 MT), …; test: SPR (BIACORE 3000), human c-Met ECD-Fc immobilized, antibody injected
Procedure: as §3

[8] = target: T5, Insulin-like Growth Factor 1 Receptor (IGF-1R) (UniProt P08069 31-1367, limits assumed); test: IGF-1R Cell ELISA: IGF-1R tyrosine phosphorylation after IGF-1, % of control. Indirect readout; the legend says that the antibody does not bind IGF-1R
T5 construct: also called IGF-IR

[9] = target: T4, c-Met ECD-Fc (cynomologus); test: SPR (BIACORE 3000), cynomologus c-Met ECD-Fc immobilized, antibody injected
Procedure: as §3

[10] = target: T3, c-Met ECD/Fc (R&D Systems #358 MT), …; test: Ligand Binding ELISA (competition): plate coated with c-Met ECD/Fc, antibody concentration varied, then HGF added and bound HGF detected; readout is % inhibition of HGF binding
Procedure: The wells were washed four times with Tris-buffered saline (pH=8.0) with 0.05% TWEEN-20 (TBS-T). Next, 200 μl/well of blocking buffer (3% bovine serum albumin (BSA) in TBS-T) was added for 60 minutes (min) at room temperature to block non-specific binding sites. The wells were washed 4 times with 300 μl/well TBS-T. Next, 100 μl of Dulbecco's Modified Eagle medium (DMEM) supplemented with 10% FBS containing anti-c-Met antibodies from hybridoma supernatants or purified antibodies in either PBS or 20 mM sodium acetate (pH=5.5), 140 mM NaCl at various concentrations (e.g., 10, 3, 1, 0.3, 0.1, 0.03, and 0.01 μg/ml, based on human IgG2 concentrations in the supernatants) was added to each well. Anti-c-Met antibody was not added to the control wells of the experiment. The samples were mixed for 4 hours (hrs) at room temperature. […] The samples were mixed for 15 minutes at room temperature. […] The solutions were incubated in the wells for 30 min at room temperature. […] The samples were incubated for 30 min at room temperature. The wells were washed 5 times with TBS-T, about 300 μl/well/wash. Next, 100 μl/well of 3,3′,5,5′-tetramethylbenzidine (TMB) peroxidase substrate (Kirkegaard & Perry Laboratories) was added and developed for 1-2 min at room temperature. […] The samples were read at a wavelength of 450 nanometers (nm) on a 96-well plate reader and no background was subtracted.

T4 sequence (A0A2K5UM36 entry or part of it limits assumed): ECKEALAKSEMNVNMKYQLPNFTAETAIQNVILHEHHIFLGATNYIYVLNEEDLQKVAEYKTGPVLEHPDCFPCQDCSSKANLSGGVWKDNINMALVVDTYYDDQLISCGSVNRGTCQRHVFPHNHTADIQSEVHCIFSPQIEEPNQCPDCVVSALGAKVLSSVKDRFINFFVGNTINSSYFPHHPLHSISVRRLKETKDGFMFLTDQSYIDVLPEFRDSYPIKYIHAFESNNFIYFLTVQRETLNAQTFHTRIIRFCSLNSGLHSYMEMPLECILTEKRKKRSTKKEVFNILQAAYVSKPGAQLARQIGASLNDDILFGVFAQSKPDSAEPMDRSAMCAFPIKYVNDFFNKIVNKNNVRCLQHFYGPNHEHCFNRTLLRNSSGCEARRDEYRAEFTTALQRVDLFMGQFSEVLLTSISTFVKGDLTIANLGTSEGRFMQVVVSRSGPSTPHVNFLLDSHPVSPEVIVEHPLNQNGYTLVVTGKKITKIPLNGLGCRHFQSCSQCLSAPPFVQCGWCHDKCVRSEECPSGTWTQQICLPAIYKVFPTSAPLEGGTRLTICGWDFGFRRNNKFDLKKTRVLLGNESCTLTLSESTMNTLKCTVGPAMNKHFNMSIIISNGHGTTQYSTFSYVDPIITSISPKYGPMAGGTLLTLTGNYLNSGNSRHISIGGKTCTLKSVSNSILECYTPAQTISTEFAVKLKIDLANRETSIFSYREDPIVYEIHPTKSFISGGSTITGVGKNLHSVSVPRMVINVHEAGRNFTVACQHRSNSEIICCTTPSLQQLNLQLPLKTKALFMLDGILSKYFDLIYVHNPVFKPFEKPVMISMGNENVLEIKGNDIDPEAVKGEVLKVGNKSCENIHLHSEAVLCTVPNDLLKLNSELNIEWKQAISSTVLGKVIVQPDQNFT
T2 sequence (A0A2K5UM36 entry or part of it limits assumed): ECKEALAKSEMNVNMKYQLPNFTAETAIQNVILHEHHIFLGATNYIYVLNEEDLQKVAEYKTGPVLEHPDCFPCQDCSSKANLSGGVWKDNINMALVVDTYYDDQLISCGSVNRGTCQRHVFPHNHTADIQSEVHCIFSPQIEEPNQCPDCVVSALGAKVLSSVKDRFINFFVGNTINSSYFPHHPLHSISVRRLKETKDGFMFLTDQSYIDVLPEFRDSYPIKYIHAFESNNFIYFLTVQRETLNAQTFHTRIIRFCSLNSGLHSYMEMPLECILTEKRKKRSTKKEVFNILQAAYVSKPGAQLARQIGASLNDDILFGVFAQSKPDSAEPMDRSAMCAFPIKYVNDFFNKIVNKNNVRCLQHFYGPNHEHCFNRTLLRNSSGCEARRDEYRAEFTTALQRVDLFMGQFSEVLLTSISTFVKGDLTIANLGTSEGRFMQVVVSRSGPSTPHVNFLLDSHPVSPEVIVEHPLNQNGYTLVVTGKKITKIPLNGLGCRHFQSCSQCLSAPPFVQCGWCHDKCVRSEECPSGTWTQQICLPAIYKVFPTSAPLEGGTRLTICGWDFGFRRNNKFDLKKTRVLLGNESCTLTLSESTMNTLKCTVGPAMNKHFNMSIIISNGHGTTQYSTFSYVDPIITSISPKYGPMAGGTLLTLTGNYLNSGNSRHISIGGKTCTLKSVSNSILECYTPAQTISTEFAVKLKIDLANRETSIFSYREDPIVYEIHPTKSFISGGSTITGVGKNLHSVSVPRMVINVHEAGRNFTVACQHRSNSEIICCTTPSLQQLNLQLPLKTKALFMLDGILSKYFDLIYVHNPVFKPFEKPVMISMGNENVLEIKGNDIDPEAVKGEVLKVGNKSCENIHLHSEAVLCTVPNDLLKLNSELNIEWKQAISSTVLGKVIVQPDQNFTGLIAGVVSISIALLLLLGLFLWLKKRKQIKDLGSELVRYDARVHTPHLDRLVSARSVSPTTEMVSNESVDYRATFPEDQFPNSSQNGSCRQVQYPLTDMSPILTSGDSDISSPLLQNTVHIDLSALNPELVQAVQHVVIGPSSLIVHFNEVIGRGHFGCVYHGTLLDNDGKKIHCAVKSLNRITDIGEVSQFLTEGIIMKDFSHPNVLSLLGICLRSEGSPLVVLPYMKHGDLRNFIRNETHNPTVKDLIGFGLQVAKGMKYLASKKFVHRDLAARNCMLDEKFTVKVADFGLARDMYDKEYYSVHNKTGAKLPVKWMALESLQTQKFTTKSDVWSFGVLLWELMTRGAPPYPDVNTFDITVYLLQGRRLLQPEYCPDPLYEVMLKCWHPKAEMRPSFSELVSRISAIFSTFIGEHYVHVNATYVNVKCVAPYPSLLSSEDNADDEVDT
T3 sequence (P08581 25-932): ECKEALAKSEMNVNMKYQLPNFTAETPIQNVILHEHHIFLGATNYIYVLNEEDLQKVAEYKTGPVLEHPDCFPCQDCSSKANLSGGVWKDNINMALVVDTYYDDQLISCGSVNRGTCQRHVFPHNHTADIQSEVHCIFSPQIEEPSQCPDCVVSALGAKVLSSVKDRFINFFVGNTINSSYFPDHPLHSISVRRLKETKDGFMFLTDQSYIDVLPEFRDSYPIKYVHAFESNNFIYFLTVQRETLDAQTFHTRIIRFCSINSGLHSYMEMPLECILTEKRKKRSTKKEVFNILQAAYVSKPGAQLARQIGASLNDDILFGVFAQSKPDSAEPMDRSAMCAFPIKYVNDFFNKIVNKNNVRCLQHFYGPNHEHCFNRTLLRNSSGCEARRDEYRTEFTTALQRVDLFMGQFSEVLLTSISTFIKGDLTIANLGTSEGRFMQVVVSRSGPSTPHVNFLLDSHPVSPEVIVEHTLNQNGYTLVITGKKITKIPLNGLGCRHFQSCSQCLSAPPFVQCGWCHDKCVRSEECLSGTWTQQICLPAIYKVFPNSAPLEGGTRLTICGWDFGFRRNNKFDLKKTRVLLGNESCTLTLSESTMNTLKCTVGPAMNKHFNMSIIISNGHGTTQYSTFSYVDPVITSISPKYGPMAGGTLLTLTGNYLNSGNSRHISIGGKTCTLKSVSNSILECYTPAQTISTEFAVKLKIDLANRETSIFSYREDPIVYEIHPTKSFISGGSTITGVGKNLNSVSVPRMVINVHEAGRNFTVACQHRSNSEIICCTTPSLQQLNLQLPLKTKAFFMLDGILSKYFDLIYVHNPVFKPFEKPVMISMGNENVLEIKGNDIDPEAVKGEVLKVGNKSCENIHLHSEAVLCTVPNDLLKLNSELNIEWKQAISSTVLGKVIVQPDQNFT
T1 sequence (P08581 25-1390): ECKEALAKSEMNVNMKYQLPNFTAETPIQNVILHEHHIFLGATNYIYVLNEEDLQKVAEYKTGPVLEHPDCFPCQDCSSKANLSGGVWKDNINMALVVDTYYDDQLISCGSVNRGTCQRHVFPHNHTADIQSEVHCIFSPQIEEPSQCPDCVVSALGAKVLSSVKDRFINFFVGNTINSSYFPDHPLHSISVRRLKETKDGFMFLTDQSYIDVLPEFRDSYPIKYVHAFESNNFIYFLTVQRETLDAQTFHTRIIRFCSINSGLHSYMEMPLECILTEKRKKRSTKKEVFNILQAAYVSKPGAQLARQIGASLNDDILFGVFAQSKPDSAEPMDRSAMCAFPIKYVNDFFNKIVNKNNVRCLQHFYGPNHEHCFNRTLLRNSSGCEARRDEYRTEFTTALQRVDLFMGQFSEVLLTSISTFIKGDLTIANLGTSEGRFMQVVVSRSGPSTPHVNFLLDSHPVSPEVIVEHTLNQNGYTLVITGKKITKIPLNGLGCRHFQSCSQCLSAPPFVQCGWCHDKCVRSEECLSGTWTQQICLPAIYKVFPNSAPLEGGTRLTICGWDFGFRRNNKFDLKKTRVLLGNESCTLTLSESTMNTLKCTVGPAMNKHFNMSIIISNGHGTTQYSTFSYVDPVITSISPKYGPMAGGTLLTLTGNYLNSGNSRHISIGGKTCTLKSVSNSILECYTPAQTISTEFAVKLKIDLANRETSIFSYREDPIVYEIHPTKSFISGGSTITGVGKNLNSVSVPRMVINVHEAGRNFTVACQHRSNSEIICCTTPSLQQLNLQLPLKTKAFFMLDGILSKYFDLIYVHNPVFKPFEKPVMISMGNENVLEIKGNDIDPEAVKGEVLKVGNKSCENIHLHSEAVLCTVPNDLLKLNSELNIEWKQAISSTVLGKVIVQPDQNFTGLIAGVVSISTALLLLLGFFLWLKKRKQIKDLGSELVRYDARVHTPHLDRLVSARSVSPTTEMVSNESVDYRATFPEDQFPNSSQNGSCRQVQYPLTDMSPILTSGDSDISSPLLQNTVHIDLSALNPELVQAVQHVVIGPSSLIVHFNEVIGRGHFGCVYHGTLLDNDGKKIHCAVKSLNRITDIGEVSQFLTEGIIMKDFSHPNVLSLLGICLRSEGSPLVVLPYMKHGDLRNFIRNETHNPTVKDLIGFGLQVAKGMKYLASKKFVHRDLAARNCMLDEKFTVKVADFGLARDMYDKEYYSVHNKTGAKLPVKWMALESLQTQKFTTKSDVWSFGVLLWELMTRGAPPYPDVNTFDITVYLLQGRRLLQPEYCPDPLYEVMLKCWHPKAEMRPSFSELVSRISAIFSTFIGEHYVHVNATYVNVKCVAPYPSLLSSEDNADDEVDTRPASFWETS

Row | Binder | Kd [1] | Kd [2] | Kd [3] | IC50 [4] | Agonist Activity [maximum fold stimulation] [5] | Cellular Met Levels [% loss at 1.0 µg/ml] [5] | Cellular pTyr Assay [IC50, µg/ml] [5] | Soft Agar Growth [IC50, µg/ml] [5] | Tubular Morphogenesis Agonism [fold stimulation at 50 µg/ml] [5] | Tubular Morphogenesis Antagonism [% inhibition at 1 µg/ml] [5] | Kd [6] | koff [7] | binding result [8] | koff [9] | IC50 (read off the curve) [10]
1 | anti-c-Met monoclonal antibody 8.70.2 (antibody, V domains shown, Human IgG2 kappa; also called hybridoma 8.70.2 (LN 15885); PTA-5028) VH: QLQLQESGPGLVKPSETLSLTCTVSGGSISSSSYYGGWIRQPPGKGLDWIGSIYYSGNTYYNPSLKSRVTISVDTSKNQFSLKLSSVTAADTAVYYCARHSWDYFDYWDQGTLVTVSS VL: DIQMTQSPSSVSASVGDRVTITCRASQGISSWLAWYQQKPGKAPKLLIYAASSLQSGVPSRFSGSGSGTDFTLTISSLQSEDFATYYCQQANSFPITFGPGTKVEIKR | 0.0407 nM | 0.0553 nM | 0.33 nM | 0.115 µg/mL | 2.5 fold stimulation (maximum) | 11 % loss at 1.0 µg/ml | 0.143 µg/ml | 25 µg/mL | 8.2 fold stimulation at 50 µg/ml | 25 % inhibition at 1 µg/ml | 0.32 nM | 6.1e-05 s⁻¹ | – | 6.5e-05 s⁻¹ | –
2 | anti-c-Met monoclonal antibody 13.3.2 (antibody, human IgG2, kappa, V domains shown, Human IgG2 kappa from XenoMouse hybridoma; The variable positions X2, X4, X6, X8 correspond to positions 42, 97, 14 (heavy) and 91 (light), where position one is the N-terminal amino acid; these numbers may not count on the entry with its leader; also called PTA-5026) VH: QVQLVQSGAEVKKPGASVKVSCEASGYTFTSYGFSWVRQAPGQGLEWMGWISASNGNTYYAQKLQGRVTMTTDTSTSSAYMELRSLRSDDTAVYYCARVYADYADYWGQGTLVTVSS VL: DIQMTQSPSSVSASVGDRVTITCRASQGINTWLAWYQQKPGKAPKLLIYAASSLKSGVPSRFSGSGSGADFTLTISSLQPEDFATYYCQQANSFPLTFGGGTKVEIKR | 0.0393 nM | 0.0486 nM | 0.22 nM | 0.09 µg/mL | 2.7 fold stimulation (maximum) | – | 0.033 µg/ml | 8.5 µg/mL | – | – | 0.6 nM | 0.00015 s⁻¹ | no binding (tested: 1000 µg/ml) | 0.00029 s⁻¹ | ~0.03 µg/mL
3 | anti-c-Met monoclonal antibody 8.90.3 (antibody, V domains shown, Human IgG2 kappa) VH: EVQLVESGGGLVQPGGSLRLSCAASGFTFSRYSMNWVRQAPGKGLEWVSYISSRSSTIYYADSVKGRFTMSRDNAKNSLYMQMNSLRDEDTAVYYCGYGDYDYFDYWGQGTLVTVSS VL: DIQMTQSPSSVSASVGDRVIITCRASQGISSWLAWYQQKPGKAPKLLIYAASSLKSGVPSRFSGSGSGTDFTVTISSLQPEDFATYYCQQSNSLPWTFGQGTKVEIKR | 0.026 nM | 0.393 nM | 0.53 nM | 0.11 µg/mL | 2.3 fold stimulation (maximum) | 17.5 % loss at 1.0 µg/ml | 0.086 µg/ml | 10.5 µg/mL | 2.5 fold stimulation at 50 µg/ml | 61 % inhibition at 1 µg/ml | 1.22 nM | 0.00015 s⁻¹ | – | 0.00025 s⁻¹ | –

Next, values leading:

Row | Kd [1] | Kd [2] | Kd [3] | IC50 [4] | Agonist Activity [maximum fold stimulation] [5] | Cellular Met Levels [% loss at 1.0 µg/ml] [5] | Cellular pTyr Assay [IC50, µg/ml] [5] | Soft Agar Growth [IC50, µg/ml] [5] | Tubular Morphogenesis Agonism [fold stimulation at 50 µg/ml] [5] | Tubular Morphogenesis Antagonism [% inhibition at 1 µg/ml] [5] | Kd [6] | koff [7] | binding result [8] | koff [9] | IC50 (read off the curve) [10] | Binder
4 | 0.169 nM | 0.168 nM | 0.82 nM | 0.093 µg/mL | 6.5 fold stimulation (maximum) | 46.9 % loss at 1.0 µg/ml | 0.033 µg/ml | 5.5 µg/mL | 2.2 fold stimulation at 50 µg/ml | 84 % inhibition at 1 µg/ml | 1.1 nM | 6.8e-05 s⁻¹ | no binding (tested: 1000 µg/ml) | 9.8e-05 s⁻¹ | – | anti-c-Met monoclonal antibody 9.1.2 (antibody, V domains shown, Human IgG2 kappa; also called hybridoma 9.1.2 (LN 15884); PTA-5027) VH: QVQLQESGPGLVKPSQTLSLTCTVSGGSISSGGYYWSWIRQHPGKGLEWIGYIYYSGSTYYNPSLKSRVTISVDTSKNQFSLKLSSVTAADTAVYYCARDGPLGYCSSTSCPVTGEYYYYGMDVWGQGTTVTVSS VL: EIVLTQSPGTLSLSPGERATLSCRASQSVSNNYLAWYQQKPGQAPRLLIFGASSRATGIPDRFSGSGSGTDFTLTISRLEPEDFAVYYCQQYDISPMYSFGQGTKLEMKR
5 | 0.056 nM | 0.0733 nM | 0.2 nM | 0.127 µg/mL | 2.5 fold stimulation (maximum) | 28.5 % loss at 1.0 µg/ml | 0.032 µg/ml | – | – | – | 0.61 nM | 0.00018 s⁻¹ | – | 0.0004 s⁻¹ | ~0.05 µg/mL | anti-c-Met monoclonal antibody 13.3.2L-A91T, H-E42K, S97T (antibody, human IgG2, kappa, V domains shown, positions 42, 97, 14 and 91 count from the N-terminal amino acid and may not count on the entry with its leader) VH: QVQLVQSGAEVKKPGASVKVSCKASGYTFTSYGFSWVRQAPGQGLEWMGWISASNGNTYYAQKLQGRVTMTTDTSTSTAYMELRSLRSDDTAVYYCARVYADYADYWGQGTLVTVSS VL: DIQMTQSPSSVSASVGDRVTITCRASQGINTWLAWYQQKPGKAPKLLIYAASSLKSGVPSRFSGSGSGTDFTLTISSLQPEDFATYYCQQANSFPLTFGGGTKVEIKR
